Tests used:
Assay in all cases: purified protein
Format in all cases: biochemical, Phytobacter diazotrophicus
[1] = system: CC(=O)OCC1=C(C(=O)O)N2C(=O)[C@@H](NC(=O)Cc3cccs3)[C@H]2SC1; conditions: 50 mM HEPES pH 7.5, 25°C, 50 µM ZnSO4, 0.634 µM enzyme
[2] = system: CO/N=C(\C(=O)N[C@@H]1C(=O)N2C(C(=O)O)=C(COC(C)=O)CS[C@H]12)c1csc(N)n1; conditions: 50 mM HEPES pH 7.5, 25°C, 50 µM ZnSO4, 0.634 µM enzyme, kcat 0.61 in source
[3] = system: CO/N=C(\C(=O)N[C@@H]1C(=O)N2C(C(=O)O)=C(COC(N)=O)CS[C@H]12)c1ccco1; conditions: 50 mM HEPES pH 7.5, 25°C, 50 µM ZnSO4, 1.27 µM enzyme

Substance: CAR-2 (Phytobacter diazotrophicus)
- Km [1]: 63.78 µM
- Vmax [1]: 31.8 µM/min
- kcat [1]: 0.84 s⁻¹
- kcat/Km [1]: 13200 M⁻¹ s⁻¹
- Km [2]: 33.08 µM
- Vmax [2]: 23.4 µM/min
- kcat [2]: 0.62 s⁻¹
- kcat/Km [2]: 18700 M⁻¹ s⁻¹
- Km [3]: 49.28 µM
- Vmax [3]: 16.2 µM/min
- kcat [3]: 0.21 s⁻¹
- kcat/Km [3]: 4260 M⁻¹ s⁻¹
